Measured values reported in PMC7595419.

Target: SicA-His6 (Salmonella enterica serovar Typhimurium) (UniProt P69066)
Test: EMSA

Chain of SicA-His6 (Salmonella enterica serovar Typhimurium) (P69066 whole entry): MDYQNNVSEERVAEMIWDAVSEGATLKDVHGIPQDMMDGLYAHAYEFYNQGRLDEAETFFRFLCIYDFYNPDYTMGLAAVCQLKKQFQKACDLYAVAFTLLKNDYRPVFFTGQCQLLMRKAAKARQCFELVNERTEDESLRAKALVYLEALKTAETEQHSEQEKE

Sequence: ATAGGATCCCGTTGTATAAGGTTTTTTGTAGGCTTTTAAAAGCCTCCTGGGTTTTTAGTGAAGCTGAGTGATAGAAGCTCTGTATTTGCATAGCGTTTTTAATATTCCTGAATAGGGGAGTGGGAACATTCAACAGGGTTAACAACCCTTTAAAAGGATGTGACTTTTATGCACCAGGAACTTTAAAAAAATGTCCTTTTTAATGAGGAAACGCTTCTGATCAGGCGGGGAGGCATCCTGACGTCCATACGTAGTGGCGATCATGGGGGAGATCGGTACATCAAATGTCTAGATAT (double strand) [sopB regulatory region (-200 to +79)]
- binding: no binding
